Results on one molecule are retold here after PMC9529352.

For this data set, the target named is N protein WT (SARS-CoV-2, UniProt P0DTC9 1-419). The data set can be described thus: mass photometry. The following applies: protein: recombinant; tags: 6xHis-SUMO tag cleaved by Ulp1; chain copies: 12; hairpin.

B1: SL8 RNA (structured_RNA)
RNA: GAUGGCACUUGUGGCUUAGUAGAAGUUGAAAAAGGCGUUUUGCCUCAACUUGAACAGCCCUAUGUGUUCAUC
For B1, the binding result is given as “binds”.
